The values that follow come from patent US20230025360A1, “PROCESSES FOR GENERATING SUPERIOR ANTI-TUMOR T-CELL EFFECTOR AND MEMORY CELLS” (MUSC Foundation for Research Development, priority 2016, published 2023).

In data set [1] the test system is Splenic T cells. Description: Splenic T cells activated with anti-CD3/28 in presence of α-KG. It counts as cell-based, C57BL/6 mouse. Conditions: α-KG pretreatment for three days. On the procedure: Splenic T cells from C57BL/6 mouse were activated with anti-CD3/28 (each 2 μg/ml) either in absence or presence of α-KG for three days, after which: (FIG. 10A) Glucose uptake was determined using 2NBDG, and (FIG. 10B) Tscm phenotype was evaluated using CD62L and CD44 cell surface expression. N=2.

Data set [2] deals with Splenic T cells. The experiment in a line: Homeostatic proliferation of IL2 or IL2+IL4 activated T cells in Rag1−/− recipients. Format: in vivo, C57BL/6 mice. Conditions: IL2+IL4 vs IL2, tracked at day 28. The text has this:
Splenic T cells from C57BL/6 mice on Thy1.1 or Thy1.2 background were activated for three days either in 1L2 or IL2+IL4 respectively, and mixed in 1:1 ratio before injecting i.v. in Rag1−/− recipients to determine any differences in homeostatic proliferation. Transferred T cells were tracked at day 28 by staining Thy1.1 and Th1.2 cells in various lymphoid and non-lymphoid tissues.

A further data set has as its system NF-KB. Description: NF-KB activity after addition of recombinant Trx. It counts as cell-based.
The subject of the next data set is murine melanoma B16-F10. The experiment in a line: Adoptive transfer of T cells activated in presence of rTrx. Conditions: gp100 reactive effector T cells generated in presence of rTrx. It counts as in vivo, C57BL/6 mice. As for the experimental part: (FIG. 7A) Three day activated gp100 epitope reactive splenic T cells from Pmel and Pmel−Trx mouse were re-stimulated overnight with cognate antigen, and supernatant was evaluated for secreted Trx by ELISA as per protocol. N=3 **p<0.005. (FIG. 7B) Pmel T cells were labeled with CFSE and stimulated with cognate antigen gp100 for three days. The expression of Trx was then determined using flurochrome conjugated antibody by gating on the cells in different phase of division. (FIG. 7C) CFSE labeled Pmel T cells were stimulated with cognate antigen in absence or presence of rTRx at various doses. Pmel T cells activated with cognate antigen in presence of rTrx (5 μg/ml) were used at day 3 to determine the expression of Trx (FIG. 7D), iGSH (FIG. 7E), pAMPK (FIG. 7F), stemness genes using qPCR (FIG. 7G), Annexin V upregulation after 4 hr of TCR restimulation with cognate antigen hgp100 or non-cognate ova peptide (FIG. 7H), and Glucose uptake using 2NBDG (FIG. 7I). N=2-3. Numerical values=MFI. *p<0.05, **p<0.01. […]
Further, it was determined if the strategy to activate and expand in presence of rTrx ex vivo would render tumor epitope reactive T cells with robust anti-tumor property.

Another data set concerns Pmel T cells. The experiment in a line: Pmel T cells activated with cognate antigen in presence of rTrx. Format: cell-based. As for the experimental part: (FIG. 7A) Three day activated gp100 epitope reactive splenic T cells from Pmel and Pmel−Trx mouse were re-stimulated overnight with cognate antigen, and supernatant was evaluated for secreted Trx by ELISA as per protocol. N=3 **p<0.005. (FIG. 7B) Pmel T cells were labeled with CFSE and stimulated with cognate antigen gp100 for three days. The expression of Trx was then determined using flurochrome conjugated antibody by gating on the cells in different phase of division. (FIG. 7C) CFSE labeled Pmel T cells were stimulated with cognate antigen in absence or presence of rTRx at various doses. Pmel T cells activated with cognate antigen in presence of rTrx (5 μg/ml) were used at day 3 to determine the expression of Trx (FIG. 7D), iGSH (FIG. 7E), pAMPK (FIG. 7F), stemness genes using qPCR (FIG. 7G), Annexin V upregulation after 4 hr of TCR restimulation with cognate antigen hgp100 or non-cognate ova peptide (FIG. 7H), and Glucose uptake using 2NBDG (FIG. 7I). N=2-3. Numerical values=MFI. *p<0.05, **p<0.01. (FIG. 7J) Melanoma epitope gp100 reactive T cells obtained from Pmel TCR transgenic mouse were activated with cognate antigen either in presence or absence of recombinant thioredoxin (rTrx) for three days before being adoptively transferred to the immunocompetent C57BL/6 recipient mice with ten day subcutaneously established murine melanoma B16-F10. Tumor measurements from two different experiments where Pmel and Pmel+rTrx were transferred to 9 recipient mice was compiled for this presentation. ***p value<0.01 obtained at last time point of the tumor measurement before the experiment was terminated.
To get an insight into the mechanism that may be responsible for the ability of co-injected Pmel T cells to respond to tumor rechallenge (as in FIG. 6), it was determined if Pmel−Trx secreted Trx upon antigen restimulation. […] Further, to determine how secreted Trx would have modulated the Pmel T cells, recombinant Trx was used during antigen induced in vitro Pmel activation and compared the phenotype with untreated Pmel and Pmel−Trx T cells. […] It has also been shown recently that Trx1-mediated reduction of Cys130 and Cys174 is essential for AMPK function, and decreased Trx levels could lead to oxidation of Cys130 and Cys174 by inducing aggregation that prevents its activation and phosphorylation by AMPK kinases (Shao D et al., 2014, Cell Metab, 19(2):232-45).

Setting [3] is: TCR re-stimulation with cognate antigen (hgp100), cultured three days with recombinant Trx.

As to `O=C(O)CCC(=O)C(=O)O` [α-ketoglutarate], the “T cell phenotype (CD62L and CD44 cell surface expression)” value with Splenic T cells [1] is “renders Tscm phenotype”.

B1: IL4: cytokine used with IL2 to pretreat T cells for three days (protein, UniProt P05112 25-153, looked up)
Interleukin-4: HKCDITLQEIIKTLNSLTEQKTLCTELTVTDIFAASKNTTEKETFCRAATVLRQFYSHHEKDTRCLGATAQQFHRHKQLIRFLKRLDRNLWGLAGLNSCPVKEANQSTLENFLERLKTIMREKYSKCSS
As to B1, the “persistence of pretreated T cells in vivo” value with Splenic T cells [2] is recorded as “improved persistence”.

B2: rTrx: recombinant thioredoxin added during ex vivo T cell activation (protein, UniProt P10599 2-105, looked up)
Thioredoxin: VKQIESKTAFQEALDAAGDKLVVVDFSATWCGPCKMIKPFFHSLSEKYSNVIFLEVDVDDCQDVASECEVKCMPTFQFFKKGQKVGEFSGANKEKLEATINELV
Regarding B2, in the data set with NF-KB, the NF-KB activity result is recorded as “decrease”. Further, in the data set with murine melanoma B16-F10, the “survival of transferred T cells in vivo” value is reported as “survive longer” and the tumor control entry was “much improved tumor control”. In the data set on Pmel T cells (CFSE labeled Pmel T cells, rTrx at various doses), the “toxicity / cell division during T cell activation” value was “non-toxic”. Moreover, in the data set on Pmel T cells (setting [3]), the “cell death as measured by Annexin V levels” value was “reduced cell death” and the “glucose uptake (2NBDG)” value was “reduced”. For the same molecule, the pAMPK result in the data set on Pmel T cells (compared to activated Pmel T cells) was “increased pAMPK”. In addition, in the data set on Pmel T cells (rTrx 5 μg/ml, day 3), the “Lef1 gene expression (qPCR, stemness genes)” value is recorded as “up-regulation”; the “Tcf7 gene expression (qPCR, stemness genes)” value is listed as “up-regulation”; the “expression of Trx” value was “increased expression”; the “expression of iGSH” value is reported as “increased expression”.
